Experimental data taken from paper PMC7318843 (Neuron, 2020).

Molecular target: biotin-labeled Aβ40 (UniProt P05067 672-711, biotin (position not given))
Experiment: pull-down

binding result: binds
B1: MDK protein (Midkine), human recombinant (natural protein, UniProt P21741 21-143, looked up)
chain: VAKKKDKVKKGGPGSECAEWAWGPCTPSSKDCGVGFREGTCGAQTQRIRCRVPCNWKKEFGADCKYKFENWGACDGGTGTKVRQGTLKKARYNAQCQETIRVTKPCTPKTKAKAKAKKGKGKD
